Experimental data taken from article PMC2905227 (Journal of the American Chemical Society, 2010).

How the values were obtained:
Test in all cases: competitive inhibition of enzyme activity
[1] = molecular target: T1, [NO2Y730]-α2(Y731F) (E. coli, UniProt P00452 1-761, Y731F, 3-nitrotyrosine (NO2Y) in place of Y730)
T1 sequence (looked up): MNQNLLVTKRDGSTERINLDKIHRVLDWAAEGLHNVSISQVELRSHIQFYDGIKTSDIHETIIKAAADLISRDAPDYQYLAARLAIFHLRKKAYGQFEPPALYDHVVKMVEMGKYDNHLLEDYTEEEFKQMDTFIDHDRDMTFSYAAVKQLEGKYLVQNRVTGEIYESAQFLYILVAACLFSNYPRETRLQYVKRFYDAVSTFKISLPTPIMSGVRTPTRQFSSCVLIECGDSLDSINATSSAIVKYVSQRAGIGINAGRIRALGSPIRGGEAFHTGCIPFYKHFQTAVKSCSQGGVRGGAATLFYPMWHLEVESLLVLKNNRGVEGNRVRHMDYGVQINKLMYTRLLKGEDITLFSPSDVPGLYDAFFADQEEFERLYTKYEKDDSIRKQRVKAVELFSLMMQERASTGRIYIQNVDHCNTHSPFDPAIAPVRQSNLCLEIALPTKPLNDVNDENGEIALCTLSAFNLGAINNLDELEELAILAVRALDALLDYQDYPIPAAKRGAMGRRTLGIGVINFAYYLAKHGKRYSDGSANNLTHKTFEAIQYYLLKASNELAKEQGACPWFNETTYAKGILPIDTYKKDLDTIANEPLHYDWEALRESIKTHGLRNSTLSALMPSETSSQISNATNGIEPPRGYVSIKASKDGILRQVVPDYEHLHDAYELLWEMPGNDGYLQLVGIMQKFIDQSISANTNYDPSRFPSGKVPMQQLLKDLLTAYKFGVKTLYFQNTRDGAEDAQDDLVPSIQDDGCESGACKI

[2] = molecular target: T2, [NO2Y730]-α2(C439S) (E. coli, UniProt P00452 1-761, C439S, 3-nitrotyrosine (NO2Y) in place of Y730)
T2 sequence (looked up): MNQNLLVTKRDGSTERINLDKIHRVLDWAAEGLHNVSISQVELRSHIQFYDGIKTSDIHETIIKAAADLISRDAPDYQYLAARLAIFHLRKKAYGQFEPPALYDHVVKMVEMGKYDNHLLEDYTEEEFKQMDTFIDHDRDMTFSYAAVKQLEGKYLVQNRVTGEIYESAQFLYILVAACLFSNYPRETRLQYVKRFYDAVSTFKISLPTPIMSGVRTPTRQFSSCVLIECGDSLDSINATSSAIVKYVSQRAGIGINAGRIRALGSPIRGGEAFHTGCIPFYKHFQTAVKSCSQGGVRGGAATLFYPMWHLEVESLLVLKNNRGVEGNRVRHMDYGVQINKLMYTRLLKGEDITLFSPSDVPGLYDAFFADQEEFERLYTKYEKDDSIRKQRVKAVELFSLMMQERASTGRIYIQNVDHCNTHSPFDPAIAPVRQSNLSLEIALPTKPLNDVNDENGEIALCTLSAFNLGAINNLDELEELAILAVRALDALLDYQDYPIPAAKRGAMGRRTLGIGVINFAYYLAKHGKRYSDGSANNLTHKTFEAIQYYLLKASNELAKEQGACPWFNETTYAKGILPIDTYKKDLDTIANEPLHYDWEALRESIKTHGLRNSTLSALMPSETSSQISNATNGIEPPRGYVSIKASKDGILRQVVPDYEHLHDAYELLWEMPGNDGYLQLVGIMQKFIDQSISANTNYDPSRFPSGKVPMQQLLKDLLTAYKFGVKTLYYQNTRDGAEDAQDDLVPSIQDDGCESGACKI

[3] = molecular target: T3, [NO2Y730]-α2(C439A) (E. coli, UniProt P00452 1-761, C439A, 3-nitrotyrosine (NO2Y) in place of Y730)
T3 sequence (looked up): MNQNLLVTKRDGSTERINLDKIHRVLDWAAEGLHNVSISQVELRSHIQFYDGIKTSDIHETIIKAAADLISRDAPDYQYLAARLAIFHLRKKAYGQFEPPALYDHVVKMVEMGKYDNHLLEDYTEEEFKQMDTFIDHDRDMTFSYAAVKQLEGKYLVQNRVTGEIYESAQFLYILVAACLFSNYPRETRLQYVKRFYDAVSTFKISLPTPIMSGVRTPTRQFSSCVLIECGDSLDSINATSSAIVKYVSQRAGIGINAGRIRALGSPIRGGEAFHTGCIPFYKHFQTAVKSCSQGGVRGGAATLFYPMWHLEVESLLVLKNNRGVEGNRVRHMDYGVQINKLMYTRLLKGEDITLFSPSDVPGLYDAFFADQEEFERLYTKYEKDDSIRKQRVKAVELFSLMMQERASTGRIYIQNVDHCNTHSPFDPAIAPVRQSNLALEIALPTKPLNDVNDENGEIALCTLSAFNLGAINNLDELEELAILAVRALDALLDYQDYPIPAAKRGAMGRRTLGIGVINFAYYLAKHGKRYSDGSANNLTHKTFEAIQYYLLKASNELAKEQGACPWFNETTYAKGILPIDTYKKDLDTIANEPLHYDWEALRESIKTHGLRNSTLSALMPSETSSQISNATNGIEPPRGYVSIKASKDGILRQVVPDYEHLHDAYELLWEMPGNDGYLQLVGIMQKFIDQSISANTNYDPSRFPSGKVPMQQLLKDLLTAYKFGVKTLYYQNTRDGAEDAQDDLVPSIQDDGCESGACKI

B1: wild-type E. coli ribonucleotide reductase β2 subunit (enzyme, UniProt P69924 1-376, looked up)
chain: MAYTTFSQTKNDQLKEPMFFGQPVNVARYDQQKYDIFEKLIEKQLSFFWRPEEVDVSRDRIDYQALPEHEKHIFISNLKYQTLLDSIQGRSPNVALLPLISIPELETWVETWAFSETIHSRSYTHIIRNIVNDPSVVFDDIVTNEQIQKRAEGISSYYDELIEMTSYWHLLGEGTHTVNGKTVTVSLRELKKKLYLCLMSVNALEAIRFYVSFACSFAFAERELMEGNAKIIRLIARDEALHLTGTQHMLNLLRSGADDPEMAEIAEECKQECYDLFVQAAQQEKDWADYLFRDGSMIGLNKDILCQYVEYITNIRMQAVGLDLPFQTRSNPIPWINTWLVSDNVQVAPQEVEVSSYLVGQIDSEVDTDDLSNFQL
modifications: tyrosyl radical at Y122 (1-1.2 radicals per β2), diferric cluster
Binder B1 has a Kd [1] of 1450 ± 140 nM, a Kd [2] of 1280 ± 70 nM and a Kd [3] of 2070 ± 70 nM.
